This is an account of results in patent US20230295308A1, “ANTAGONISTIC BIPARATOPIC ANTIBODIES THAT SPECIFICALLY BIND FIBROBLAST GROWTH FACTOR RECEPTOR 2 AND METHODS OF USING SAME” (The Broad Institute, Inc., priority 2020, published 2023).

The test relates to cells stably overexpressing FGFR2 (FGFR2IIIb). Kind of test: growth of cells stably overexpressing FGFR2 (FGFR2IIIb) (FIG. 16F left). It is filed as cell-based. The source says: FIG. 16A-16F provide schematic illustrations, blots and graphs related to the development of a NANOBIT® assay to measure FGFR2 dimerization. Such an assay is used to screen biparatopic screening for their ability to disrupt FGFR2 dimerization. […] The protein interactions bring the subunits into close proximity to form a functional enzyme that generates a bright, luminescent signal. (FIG. 16B). […] FIG. 16E presents a graph of the results of the NANOBIT® assay using NANOBIT® constructs with or without FGF10 ligand. […] As shown in the graph on the left side of FIG. 16F, certain of the antibodies A-F inhibited the growth of BaF3 cells stably overexpressing FGFR2 (FGFR2IIIb). Antibody D was used in the NANOBIT® assay (graph on the right of FIG. 16F). In the rightmost graph in FIG. 16F, the fold luminescence resulting from FGFR2 WT (wild type) in the assay is represented by the left bar in each set of three bars; the fold luminescence resulting from FGFR2+FGF10 ligand in the assay is represented by the middle bar in each set of three bars; and the fold luminescence resulting from +/−FGF10 ligand difference in the assay is represented by the right bar in each set of three bars shown in FIG. 16F.
Different expression constructs (e.g., up to eight) were made encoding LgBiT and SmBiT fused to the N and C termini of protein:protein pairs. […]

B1: 2B 1.3.12 (antibody, V domains shown)
VH: EVQLVESGGGLVQPGGSLRLSCAASGFPFTSTGISWVRQAPGKGLEWVGRTHLGDGSTNYADSVKGRFTISADTSKNTAYLQMNSLRAEDTAVYYCARTYGIYDTYDMYTEYVMDYWGQGTLVTVSS
VL: DIQMTQSPSSLSASVGDRVTITCRASQDVDTSLAWYKQKPGKAPKLLIYSASFLYSGVPSRFSGSGSGTDFTLTISSLQPEDFATYYCQQSTGHPQTFGQGTKVEIK
notes: the duobody scheme implies IgG1 with K409R or F405L; also called Antibody D; GE
B1: the “growth inhibition of cells stably overexpressing FGFR2 (FGFR2IIIb)” value was “most pronounced effect”.
